How the values were obtained:
[1] = molecular target: human CD44 (human) (UniProt P16070); experiment: cell-based or functional assay
[2] = molecular target: human CD44 (human) (UniProt P16070); experiment: flow cytometry, Alexa647-RG7356 on CLL B cells with low or no ZAP-70 expression
[3] = molecular target: human CD44 (human) (UniProt P16070); experiment: flow cytometry, Alexa647-RG7356 on CLL B cells with unmutated IGVH gene
[4] = molecular target: human CD44 (human) (UniProt P16070); experiment: flow cytometry, Alexa647-RG7356 on CD19+CD5+ CLL B cells (n=59)
[5] = molecular target: human CD44 (human) (UniProt P16070); experiment: flow cytometry, Alexa647-RG7356 on CLL B cells with mutated IGVH gene
[6] = molecular target: human CD44 (human) (UniProt P16070); experiment: flow cytometry, Alexa647-RG7356 on CLL B cells with ZAP-70 expression
[7] = molecular target: human CD44 (human) (UniProt P16070); experiment: flow cytometry, Alexa647-RG7356 on CD19+ normal B cells of healthy adults (n=8)

humanized anti-CD44 monoclonal antibody (RG7356, Roche)
internalization of cell surface CD44 (reduction of MFI of Alexa647-conjugated RG7356 on CLL cells at 37 C, flow cytometry) [1]: > 40% | median MFIR (MFI of CD44 mAb divided by MFI of control mAb) [2]: 119 | median MFIR (MFI of CD44 mAb divided by MFI of control mAb) [3]: 161 | median MFIR (MFI of CD44 mAb divided by MFI of control mAb) [4]: 132 | median MFIR (MFI of CD44 mAb divided by MFI of control mAb) [5]: 118 | median MFIR (MFI of CD44 mAb divided by MFI of control mAb) [6]: 161 | median MFIR (MFI of CD44 mAb divided by MFI of control mAb) [7]: 112

Reference: patent publication US20140308301A1
